# Changes are numbered by the printed parent chain.
# T1: human C2 K430A (human, UniProt P06681 21-752)
# T1 sequence: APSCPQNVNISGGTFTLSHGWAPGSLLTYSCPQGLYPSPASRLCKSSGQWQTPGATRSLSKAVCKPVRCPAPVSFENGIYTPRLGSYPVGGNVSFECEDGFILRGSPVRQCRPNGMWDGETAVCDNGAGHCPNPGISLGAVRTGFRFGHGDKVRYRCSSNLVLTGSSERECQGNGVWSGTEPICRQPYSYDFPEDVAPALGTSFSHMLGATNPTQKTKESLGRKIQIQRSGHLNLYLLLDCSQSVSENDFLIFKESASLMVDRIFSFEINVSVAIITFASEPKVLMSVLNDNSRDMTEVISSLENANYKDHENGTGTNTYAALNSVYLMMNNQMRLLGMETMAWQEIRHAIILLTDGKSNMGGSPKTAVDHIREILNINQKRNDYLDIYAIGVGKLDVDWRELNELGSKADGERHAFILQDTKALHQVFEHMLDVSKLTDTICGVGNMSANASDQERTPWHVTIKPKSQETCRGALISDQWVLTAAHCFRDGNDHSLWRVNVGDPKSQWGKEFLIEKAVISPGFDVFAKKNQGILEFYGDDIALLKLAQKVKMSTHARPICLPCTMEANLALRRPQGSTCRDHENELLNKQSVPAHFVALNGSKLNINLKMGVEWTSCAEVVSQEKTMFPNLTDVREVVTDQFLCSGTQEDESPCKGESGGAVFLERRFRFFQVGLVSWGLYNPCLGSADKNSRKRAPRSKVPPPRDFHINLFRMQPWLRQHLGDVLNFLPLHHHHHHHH
# T2: human C2 K329A (human, UniProt P06681 21-752)
# T2 sequence: T1 sequence with K309A, A410K
# T3: human C2 K415A (human, UniProt P06681 21-752)
# T3 sequence: T1 sequence with K395A, A410K
# T4: human C2 D454A (human, UniProt P06681 21-752)
# T4 sequence: T1 sequence with A410K, D434A
# B1: RF16-226 (antibody, human IgG4 S228P, lambda)
# heavy: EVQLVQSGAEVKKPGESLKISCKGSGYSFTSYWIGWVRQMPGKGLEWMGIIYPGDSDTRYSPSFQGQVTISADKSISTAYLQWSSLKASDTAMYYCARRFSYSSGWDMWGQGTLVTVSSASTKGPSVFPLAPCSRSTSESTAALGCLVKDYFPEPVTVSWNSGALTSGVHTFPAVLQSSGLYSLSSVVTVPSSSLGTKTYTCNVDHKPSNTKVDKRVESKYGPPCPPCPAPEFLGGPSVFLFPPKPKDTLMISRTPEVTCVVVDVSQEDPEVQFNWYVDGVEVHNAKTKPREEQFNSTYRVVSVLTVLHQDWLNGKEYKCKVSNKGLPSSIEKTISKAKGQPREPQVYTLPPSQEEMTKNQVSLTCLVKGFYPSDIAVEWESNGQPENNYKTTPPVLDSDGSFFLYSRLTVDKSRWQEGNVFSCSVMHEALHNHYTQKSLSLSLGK
# light: SYELTQPPSVSVSPGQTARITCSGDALTSKYVAWYQQKSGLAPLLVIYEDTRRPSGIPAKFSGSSSGSVATLTISGAHGDDEADYYCYSTDASGHQRVFGGGTKLTVLSQPKAAPSVTLFPPSSEELQANKATLVCLISDFYPGAVTVAWKADGSPVKAGVETTKPSKQSNNKYAASSYLSLTPEQWKSHRSYSCQVTHEGSTVEKTVAPTECS
# notes: pH-dependent anti-C2 antibody from a phage display library; also called WT
# Tests used:
# Test in all cases: SPR, antibody captured, C2 as analyte;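 also: biacore SPR at 37 °C, anti-C2 mAbs captured via goat anti-human IgG on CM5 chips, double-referenced sensorgrams fit to a 1:1 kinetic or steady-state model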
# human C2 K430A = target: T1, human C2 K430A
# human C2 K329A = target: T2, human C2 K329A
# human C2 K415A = target: T3, human C2 K415A
# human C2 D454A = target: T4, human C2 D454A
binder,measurement,setting,value
B1,Kd,human C2 K430A,62 nM
same,Kd,human C2 K329A,25.6 nM
same,Kd,human C2 K415A,11.7 nM
same,Kd,human C2 D454A,247 nM
